Patent publication US20180037651A1 (Janssen / Centocor, published 2018)
Substitutions are numbered along the chain they refer to. Names and notes keep the numbering of the source.

T1: cyno GPRC5D (cyno, UniProt Q9NZD1 1-343 (human entry))
T1 construct: on transfected HEK293F or Daudi cells; also called cynomolgus monkey GPRC5D
T1 chain: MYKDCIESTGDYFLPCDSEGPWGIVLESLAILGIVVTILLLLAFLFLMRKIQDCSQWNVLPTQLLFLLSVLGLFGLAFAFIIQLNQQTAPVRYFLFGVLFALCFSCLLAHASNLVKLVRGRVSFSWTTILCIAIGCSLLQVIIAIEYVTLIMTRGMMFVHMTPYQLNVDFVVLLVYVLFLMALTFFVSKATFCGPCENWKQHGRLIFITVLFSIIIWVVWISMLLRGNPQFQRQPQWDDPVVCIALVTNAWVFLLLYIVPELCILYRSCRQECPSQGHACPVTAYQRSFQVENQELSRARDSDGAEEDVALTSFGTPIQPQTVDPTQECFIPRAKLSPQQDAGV

T2: murine GPRC5D (murine, UniProt Q9JIL6 1-344)
T2 construct: also called mouse GPRC5D
T2 sequence: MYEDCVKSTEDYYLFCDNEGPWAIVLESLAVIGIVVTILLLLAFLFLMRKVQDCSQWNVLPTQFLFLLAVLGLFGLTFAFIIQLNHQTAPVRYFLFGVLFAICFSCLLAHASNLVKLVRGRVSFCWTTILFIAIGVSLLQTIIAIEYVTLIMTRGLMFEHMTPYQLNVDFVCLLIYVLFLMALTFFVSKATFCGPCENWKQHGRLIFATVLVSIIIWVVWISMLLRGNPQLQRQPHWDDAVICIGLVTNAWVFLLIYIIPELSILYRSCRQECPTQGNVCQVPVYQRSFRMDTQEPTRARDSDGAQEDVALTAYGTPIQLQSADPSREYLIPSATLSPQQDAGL

B1: GC5B80 (antibody, V domains shown)
VH: not shown
VL: EIVLTQSPATLSLSPGERATLSCRASQSVSSYLAWYQQKPGQAPRLLIYDASNRATGIPARFSGSGSGTDFTLTISSLEPEDFAVYYCQQRSNWPLTFGQGTKVEIK
notes: GC5H40+PH9L3
B2: GC5B252 (antibody, V domains shown)
VH: QVQLVQSGAEVKKPGSSVKVSCKASGGTFSSYGISWVRQAPGQGLEWMGGIIPIFGNINYAQKFQGRVTITADESTSTAYMELSSLRSEDTAVYYCARVSRRFKRFAYYFDYWGQGTLVTVSS
VL: B1 VL
notes: GC5H42+PH9L3
B3: GC5B320 (printed with GC5H92) (antibody, V domains shown)
VH: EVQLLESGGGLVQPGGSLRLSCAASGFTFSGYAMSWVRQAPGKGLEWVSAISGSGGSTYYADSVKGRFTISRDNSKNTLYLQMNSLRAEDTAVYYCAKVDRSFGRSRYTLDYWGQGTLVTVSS
VL: B1 VL
B4: GC5B332 (antibody, IgG1, V domains shown)
VH: EVQLVQSGAEVKKPGESLKISCKGSGYSFTSYWIGWVRQMPGKGLEWMGIIYPGDSDTRYSPSFQGQVTISADKSISTAYLQWSSLKASDTAMYYCARIGFYGRSFRIFDYWGQGTLVTVSS
VL: B1 VL
notes: GC5H35+PH9L3 (L6); human IgG4PAA
B5: GC5B164 (antibody, IgG1, V domains shown)
VH: EVQLVQSGAEVKKPGESLKISCKGSGYSFTSYWIGWVRQMPGKGLEWMGIIYPGDSDTRYSPSFQGQVTISADKSISTAYLQWSSLKASDTAMYYCARVYSFGGRHKALFDYWGQGTLVTVSS
VL: B1 VL
notes: GC5H36+PH9L3 (L6); human IgG4PAA
B6: GC5B320 (antibody, IgG1, V domains shown)
VH: not shown
VL: B1 VL
notes: GC5H58+PH9L3 (L6); human IgG4PAA
B7: GC5B332 (printed with GC5H89) (antibody, V domains shown)
VH: B4 VH
VL: B1 VL
B8: GC5B284 (antibody, V domains shown)
VH: not shown
VL: B1 VL
notes: GC5H14+PH9L3
B9: GC5B504 (antibody, V domains shown)
VH: B5 VH with D55E
VL: B1 VL
notes: GC5B164 PTM variant; also called GC5H245
B10: GC5B498 (antibody, V domains shown)
VH: B5 VH with W33F
VL: B1 VL
notes: GC5B164 PTM variant; also called GC5H251
B11: GC5B503 (antibody, V domains shown)
VH: B5 VH with D55K
VL: B1 VL
notes: GC5B164 PTM variant; also called GC5H246
B12: GC5B505 (antibody, V domains shown)
VH: B5 VH with D55Y
VL: B1 VL
notes: GC5B164 PTM variant; also called GC5H244
B13: GC5B496 (antibody, V domains shown)
VH: B5 VH with W33Y
VL: B1 VL
notes: GC5B164 PTM variant; also called GC5H253
B14: GC5B502 (antibody, V domains shown)
VH: B5 VH with D55S
VL: B1 VL
notes: GC5B164 PTM variant; also called GC5H247
B15: GC5B495 (antibody, V domains shown)
VH: B5 VH with W33A, D55Y
VL: B1 VL
notes: GC5B164 PTM variant; also called GC5H254
B16: GC5B501 (antibody, V domains shown)
VH: B5 VH with D55A
VL: B1 VL
notes: GC5B164 PTM variant; also called GC5H248
B17: GC5B497 (antibody, V domains shown)
VH: B5 VH with W33V
VL: B1 VL
notes: GC5B164 PTM variant; also called GC5H252
B18: GC5B251 (antibody, IgG1, V domains shown)
VH: B2 VH
VL: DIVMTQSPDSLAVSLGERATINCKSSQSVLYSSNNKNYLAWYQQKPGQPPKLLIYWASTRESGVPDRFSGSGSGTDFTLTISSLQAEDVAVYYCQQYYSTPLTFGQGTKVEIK
notes: human IgG4PAA
B19: GC5B253 (antibody, V domains shown)
VH: B2 VH
VL: not shown
notes: GC5H42+PH9L4
B20: GC5B243 (antibody, IgG1, V domains shown)
VH: EVQLLESGGGLVQPGGSLRLSCAASGFTFSDYGMHWVRQAPGKGLEWVSAIKYSGGSTYYADSVKGRFTISRDNSKNTLYLQMNSLRAEDTAVYYCAKRAESGPGLDYWGQGTLVTVSS
VL: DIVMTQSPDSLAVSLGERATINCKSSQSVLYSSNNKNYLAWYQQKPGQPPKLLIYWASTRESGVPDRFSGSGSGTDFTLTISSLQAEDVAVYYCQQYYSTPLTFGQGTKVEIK
notes: human IgG4PAA
B21: GC5B163 (antibody, V domains shown)
VH: B5 VH
VL: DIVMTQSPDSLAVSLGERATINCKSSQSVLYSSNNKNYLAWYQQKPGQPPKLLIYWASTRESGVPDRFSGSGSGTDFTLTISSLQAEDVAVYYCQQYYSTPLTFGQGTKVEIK
notes: GC5H36+PH9L2
B22: GC5B331 (antibody, V domains shown)
VH: B4 VH
VL: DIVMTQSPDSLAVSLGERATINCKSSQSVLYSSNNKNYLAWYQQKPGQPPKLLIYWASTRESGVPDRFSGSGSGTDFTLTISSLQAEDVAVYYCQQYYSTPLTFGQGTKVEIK
notes: GC5H35+PH9L2
B23: GC5B333 (printed with GC5H35) (antibody, V domains shown)
VH: B4 VH
VL: not shown
notes: GC5H35+PH9L4
B24: GCDB72 (bispecific antibody, IgG4, V domains shown)
VH 1: QVQLVQSGAEVKKPGASVKVSCKASGYSFTGYTMNWVRQAPGQGLEWMGLINPYNSDTNYAQKLQGRVTMTTDTSTSTAYMELRSLRSDDTAVYYCARVALRVALDYWGQGTLVTVSS
VL 1: DIQMTQSPSSLSASVGDRVTITCKASQNVATHVGWYQQKPGKAPKRLIYSASYRYSGVPSRFSGSGSGTEFTLTISNLQPEDFATYYCQQYNRYPYTFGQGTKLEIK
VH 2: EVQLVESGGGLVQPGGSLRLSCAASGFTFNTYAMNWVRQAPGKGLEWVARIRSKYNNYATYYAASVKGRFTISRDDSKNSLYLQMNSLKTEDTAVYYCARHGNFGNSYVSWFAYWGQGTLVTVSS
VL 2: QTVVTQEPSLTVSPGGTVTLTCRSSTGAVTTSNYANWVQQKPGQAPRGLIGGTNKRAPGTPARFSGSLLGGKAALTLSGVQPEDEAEYYCALWYSNLWVFGGGTKLTVL
notes: IgG4-PAA by Fab arm exchange; CD3 arm also F405L, R409K; also called GC5B596 x CD3B219

Columns and labels:
cyno GPRC5D [1] = target: T1, cyno GPRC5D; test: FACS, cyno GPRC5D cells, 1 ug/ml
Protocol: Whole cell phage panning was completed using the human GPRC5D cells as antigen, as described above. […] These mAbs were initially evaluated for binding to cyno GPRC5D using FACS. […] Briefly, FACS screening was performed by normalizing protein concentration to 1 ug/ml and 100 ul of protein was mixed with 200,000 cells per well. The mAb was allowed to incubate with cells for 1 hour at 4° C. The cells were then washed three times with PBS and 0.2% FBS. […] The cells and secondary antibody were incubated for 1 hour at 4° C. The cells were then washed three times with PBS and 0.2% FBS. The cells were washed again using PBS and 0.2% FBS and then analyzed on FACSarry.

cyno GPRC5D [2] = target: T1, cyno GPRC5D; test: FACS, cyno GPRC5D HEK293F cells
human GPRC5D [3] = target: T3, human GPRC5D (human, UniProt Q9NZD1 1-345); test: FACS, human GPRC5D HEK293F cells
T3 construct: on transfected HEK293/RBL cells or endogenous on myeloma cells (H929, MM1R, OPM2, LP1, JIM3, patient plasma cells); also called G protein-coupled receptor class C group 5 member D; hGPRC5D

human GPRC5D [4] = target: T3, human GPRC5D; test: FACS, human GPRC5D cells
murine GPRC5D = target: T2, murine GPRC5D; test: FACS, murine GPRC5D
cyno GPRC5D [5] = target: T1, cyno GPRC5D; test: cell-based or functional assay

T3 sequence (Q9NZD1 whole entry): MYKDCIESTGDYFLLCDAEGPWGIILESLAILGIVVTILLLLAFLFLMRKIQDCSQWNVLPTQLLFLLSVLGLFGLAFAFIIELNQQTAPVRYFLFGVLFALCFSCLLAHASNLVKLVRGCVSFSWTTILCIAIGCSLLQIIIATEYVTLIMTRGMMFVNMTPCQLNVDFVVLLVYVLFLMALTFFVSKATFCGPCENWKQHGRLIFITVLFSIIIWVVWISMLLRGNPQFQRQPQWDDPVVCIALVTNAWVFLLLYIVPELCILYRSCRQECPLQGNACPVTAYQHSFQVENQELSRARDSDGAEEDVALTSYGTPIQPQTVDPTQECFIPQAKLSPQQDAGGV

Binder | MFI (cyno GPRC5D [1]) [MFI] | MFI (human GPRC5D [4]) [mfi] | other results
B1 | 428 | – | –
B2 | 63300 | – | MFI (cyno GPRC5D [2]): 22000 MFI; MFI (human GPRC5D [3]): 1500 MFI
B3 | 297 | – | –
B4 | 192000 | – | MFI (cyno GPRC5D [2]): 107000 MFI; MFI (human GPRC5D [3]): 13300 MFI
B5 | 122000 | – | MFI (cyno GPRC5D [2]): 78700 MFI; MFI (human GPRC5D [3]): 12700 MFI
B6 | 49600 | – | MFI (cyno GPRC5D [2]): 63300 MFI; MFI (human GPRC5D [3]): 22900 MFI
B7 | 299 | – | –
B8 | 249 | – | –
B9 | – | > 10000 | –
B10 | – | > 10000 | –
B11 | – | > 10000 | –
B12 | – | > 10000 | –
B13 | – | > 10000 | –
B14 | – | > 10000 | –
B15 | – | 1000 to 10000 | –
B16 | – | > 10000 | –
B17 | – | > 10000 | –
B18 | 213000 | – | MFI (cyno GPRC5D [2]): 74500 MFI; MFI (human GPRC5D [3]): 11400 MFI
B19 | 574 | – | –
B20 | 117000 | – | MFI (cyno GPRC5D [2]): 67800 MFI; MFI (human GPRC5D [3]): 20500 MFI
B21 | 22000 | – | MFI (cyno GPRC5D [2]): 7600 MFI; MFI (human GPRC5D [3]): 840 MFI
B22 | 552 | – | –
B23 | 1590 | – | –
B24 | – | – | MFI (murine GPRC5D): 481 MFI; T-cell redirection cytotoxicity EC50, cyno GPRC5D HEK cells (cyno GPRC5D [5]): 3.41 nM
